This data set concerns the molecule itself. Nature of the data set: crystal structure.

From paper doi:10.1101/2022.10.28.514248 (bioRxiv, 2022) come the findings set out here.

B1: GDAP1ΔTM T157P (Ganglioside-induced differentiation-associated protein 1, amino acids 1-322, T157P) (domain or fragment, mouse)
chain: GGSMARRQDEARAGVPLRVEGPPDKEVHLILYHWTHSFSSQKVRLVIAEKALKCEEHDVSLPLSEHNEPWFMRLNSAGEVPVLVHGENIICEATQIIDYLEQTFLDERTPRLMPDEGSMYYPRVQHYRELLDSLPMDAYTHGCILHPELTVDSMIPAYAPTRIRSQIGNTESELKKLAEENPDLQEAYIAKQKRLKSKLLDHDNVKYLKKILDELEKVLDQVETELQRRNEETPEEGNQPWLCGESFTLADVSLAVTLHRLKFLGFARRNWGHGKRPNLETYYERVLKRKTFNKVLGHVNNILISAVLPTAFRVAKKRAPKVLGS
In the case of B1, the binding result is given as “binds”.
